Patent US20250282880A1 (NUMAB THERAPEUTICS, published 2025)

Tests used:
Biotinylated IL-4R [1] = target: T1, Biotinylated IL-4R (human, UniProt P24394 26-232, limits assumed, biotinylated); assay: competitive ELISA: IL-4 coated, biotinylated IL-4R preincubated with antibody (plate of PRO1898)
T1 construct: also called human IL-4R; hIL-4R

Biotinylated IL-4R [2] = target: T1, Biotinylated IL-4R; assay: competitive ELISA: human IL-4 coated on the plate, biotinylated IL-4R preincubated with the antagonist, bound IL-4R detected with streptavidin-HRP; blocked ligand human IL-4
Biotinylated IL-4R [3] = target: T1, Biotinylated IL-4R; assay: competitive ELISA: human IL-4 coated on the plate, biotinylated IL-4R preincubated with the antagonist, bound IL-4R detected with streptavidin-HRP; blocked ligand human IL-4 [continued) E]
Biotinylated IL-4R [4] = target: T1, Biotinylated IL-4R; assay: competitive ELISA: human IL-4 coated on the plate, biotinylated IL-4R preincubated with the antagonist, bound IL-4R detected with streptavidin-HRP; blocked ligand human IL-4; remark: listed apart in the source
Biotinylated IL-4R [5] = target: T1, Biotinylated IL-4R; assay: as above; remark: listed apart in the source
IL-4R on HEK-Blue cells = IL-4R on HEK-Blue cells (human, UniProt P24394 26-825); assay: cell-based or functional assay
Biotinylated IL-4R [6] = target: T1, Biotinylated IL-4R; assay: competitive ELISA: human IL-4 coated on the plate, biotinylated IL-4R preincubated with the antagonist, bound IL-4R detected with streptavidin-HRP; blocked ligand human IL-4; remark: listed apart in the source
Biotinylated IL-4R [7] = target: T1, Biotinylated IL-4R; assay: competitive ELISA: IL-4 coated, biotinylated IL-4R preincubated with antibody (plate of PRO1899)

IC50 (Biotinylated IL-4R [1]): 6.78 ng/mL
rel. IC50 (IC50, dupilumab/IC50, test sample) (Biotinylated IL-4R [1]): 1 ratio
IC50 (read off the curve) (Biotinylated IL-4R [2]): ~2 ng/mL
IC50 (read off the curve) (Biotinylated IL-4R [3]): ~2 ng/mL
IC50 (read off the curve) (Biotinylated IL-4R [4]): ~2 ng/mL
IC50 (read off the curve) (Biotinylated IL-4R [5]): ~3 ng/mL
IC50, neutralization of hIL-4 induced signaling in reporter gene assay (IL-4R on HEK-Blue cells): 1.15 ng/mL
IC50, neutralization of hIL-13 induced signaling in reporter gene assay (IL-4R on HEK-Blue cells): 1 ng/mL
rel. IC50 (IC50, dupilumab/IC50, test sample), hIL-4 induced signaling (IL-4R on HEK-Blue cells): 1 ratio
rel. IC50 (IC50, dupilumab/IC50, test sample), hIL-13 induced signaling (IL-4R on HEK-Blue cells): 1 ratio
IC50 (read off the curve) (Biotinylated IL-4R [6]): ~2 ng/mL
IC50 (Biotinylated IL-4R [7]): 6.18 ng/mL
rel. IC50 (IC50, dupilumab/IC50, test sample) (Biotinylated IL-4R [7]): 1 ratio
B1: dupilumab (antibody, V domains shown)
VH: EVQLVESGGGLEQPGGSLRLSCAGSGFTFRDYAMTWVRQAPGKGLEWVSSISGSGGNTYYADSVKGRFTISRDNSKNTLYLQMNSLRAEDTAVYYCAKDRLSITIRPRYYGLDVWGQGTTVTVSS
VL: DIVMTQSPLSLPVTPGEPASISCRSSQSLLYSIGYNYLDWYLQKSGQSPQLLIYLGSNRASGVPDRFSGSGSGTDFTLKISRVEAEDVGFYYCMQALQTPYTFGQGTKLEIKR
